# Source: paper PMC9482650, “Quantitative fragmentomics allow affinity mapping of interactomes” (Nature Communications, 2022)
# T1: NHERF3_1, Q5T2W1
# T1 sequence (Q5T2W1 4-100, limits assumed, looked up): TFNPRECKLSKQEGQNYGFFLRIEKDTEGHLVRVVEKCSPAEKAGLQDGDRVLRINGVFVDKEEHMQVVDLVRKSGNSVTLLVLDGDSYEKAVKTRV
# T2: DFNB31_3, Q9P202
# T2 sequence (Q9P202 811-907, limits assumed, looked up): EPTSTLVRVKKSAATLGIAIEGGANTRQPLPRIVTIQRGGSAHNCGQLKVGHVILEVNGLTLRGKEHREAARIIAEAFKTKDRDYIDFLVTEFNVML
# T3: MPDZ_12, O75970
# T3 sequence (O75970 1857-1958, limits assumed, looked up): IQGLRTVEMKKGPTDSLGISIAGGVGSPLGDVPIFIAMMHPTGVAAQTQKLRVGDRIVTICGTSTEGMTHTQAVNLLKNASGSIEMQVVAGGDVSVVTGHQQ
# T4: LIN7C, Q9NUP9
# T4 sequence (Q9NUP9 88-185, limits assumed, looked up): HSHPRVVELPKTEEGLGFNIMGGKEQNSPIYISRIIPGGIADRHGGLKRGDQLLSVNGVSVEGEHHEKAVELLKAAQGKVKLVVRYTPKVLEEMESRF
# T5: SNTG1, Q9NSN8
# T5 sequence (Q9NSN8 52-150, limits assumed, looked up): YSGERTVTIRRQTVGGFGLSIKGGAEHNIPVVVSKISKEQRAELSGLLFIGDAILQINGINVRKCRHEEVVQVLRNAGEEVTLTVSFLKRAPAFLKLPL
# T6: APBA3_1, O96018
# T6 sequence (O96018 389-490, limits assumed, looked up): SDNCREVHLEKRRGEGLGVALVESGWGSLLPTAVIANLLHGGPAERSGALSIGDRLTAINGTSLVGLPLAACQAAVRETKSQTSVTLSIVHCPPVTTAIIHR
# T7: PARD3B_1, Q8TEW8
# T7 sequence (Q8TEW8 196-299, limits assumed, looked up): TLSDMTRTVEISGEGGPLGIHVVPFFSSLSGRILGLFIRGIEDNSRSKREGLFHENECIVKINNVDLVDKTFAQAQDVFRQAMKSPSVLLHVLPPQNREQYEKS
# T8: SNTA1, Q13424
# T8 sequence (Q13424 82-180, limits assumed, looked up): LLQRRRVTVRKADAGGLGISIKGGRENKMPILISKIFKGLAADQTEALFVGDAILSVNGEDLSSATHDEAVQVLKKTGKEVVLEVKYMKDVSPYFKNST
# T9: RAPGEF6, Q8TEU7
# T9 sequence (Q8TEU7 525-625, limits assumed, looked up): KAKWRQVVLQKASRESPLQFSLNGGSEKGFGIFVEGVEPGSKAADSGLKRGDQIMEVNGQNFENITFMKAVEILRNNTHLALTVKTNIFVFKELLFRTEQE
# T10: MPDZ_10, O75970
# T10 sequence (O75970 1624-1722, limits assumed, looked up): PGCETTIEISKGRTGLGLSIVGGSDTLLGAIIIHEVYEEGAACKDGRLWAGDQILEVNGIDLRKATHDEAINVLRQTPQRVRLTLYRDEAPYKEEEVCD
# Legend:
# Test in all cases: holdup assay
# Design in all cases: key: below the threshold = too weak to quantify, mostly under pKd 3.1 to 4
# Settings in all cases: plain residues with an end cap or a label only (N-terminal biotin on a linker: ado-ado)
# [1] = biological target: T1, NHERF3_1, Q5T2W1
# [2] = biological target: DLG2_2, Q15700
# [3] = biological target: SCRIB_1, Q14160
# [4] = biological target: FRMPD4, Q14CM0
# [5] = biological target: TJP1_3, Q07157
# [6] = biological target: T2, DFNB31_3, Q9P202
# [7] = biological target: T3, MPDZ_12, O75970
# [8] = biological target: T4, LIN7C, Q9NUP9
# [9] = biological target: NHERF2_2, Q15599
# [10] = biological target: DLG2_3, Q15700
# [11] = biological target: FRMPD2_2, Q68DX3
# [12] = biological target: IL16_4, Q14005
# [13] = biological target: GRID2IP_1, A4D2P6
# [14] = biological target: GOPC, Q9HD26
# [15] = biological target: T5, SNTG1, Q9NSN8
# [16] = biological target: LDB3, O75112
# [17] = biological target: Inadl_1, Q8NI35
# [18] = biological target: T6, APBA3_1, O96018
# [19] = biological target: T7, PARD3B_1, Q8TEW8
# [20] = biological target: DLG5_1, Q8TDM6
# [21] = biological target: T8, SNTA1, Q13424
# [22] = biological target: MAGI2_3, Q86UL8
# [23] = biological target: T9, RAPGEF6, Q8TEU7
# [24] = biological target: T10, MPDZ_10, O75970
# [25] = biological target: GIPC2, Q8TF65
# [26] = biological target: CASK, O14936
# [27] = biological target: GRIP2_6, Q9C0E4
# [28] = biological target: MAGI2_2, Q86UL8
# Chain of MAGI2_2, Q86UL8 (Q86UL8 410-522): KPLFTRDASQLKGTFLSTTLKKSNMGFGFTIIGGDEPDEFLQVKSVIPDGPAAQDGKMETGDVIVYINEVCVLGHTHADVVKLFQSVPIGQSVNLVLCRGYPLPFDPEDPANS
# Chain of TJP1_3, Q07157 (Q07157 416-512): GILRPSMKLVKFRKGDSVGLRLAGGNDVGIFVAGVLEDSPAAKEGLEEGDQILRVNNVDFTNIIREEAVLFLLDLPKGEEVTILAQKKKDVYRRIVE
# Chain of GIPC2, Q8TF65 (Q8TF65 112-203): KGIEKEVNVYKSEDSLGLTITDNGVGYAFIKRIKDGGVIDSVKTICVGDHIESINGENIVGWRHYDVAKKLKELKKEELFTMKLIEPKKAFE
# Chain of MAGI2_3, Q86UL8 (Q86UL8 600-682): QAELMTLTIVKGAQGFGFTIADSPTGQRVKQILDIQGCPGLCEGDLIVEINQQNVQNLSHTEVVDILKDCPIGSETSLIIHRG
# Chain of LDB3, O75112 (O75112 1-94): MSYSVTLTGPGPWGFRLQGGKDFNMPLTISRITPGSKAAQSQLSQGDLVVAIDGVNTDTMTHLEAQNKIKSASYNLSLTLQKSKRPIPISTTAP
# Chain of SCRIB_1, Q14160 (Q14160 718-814): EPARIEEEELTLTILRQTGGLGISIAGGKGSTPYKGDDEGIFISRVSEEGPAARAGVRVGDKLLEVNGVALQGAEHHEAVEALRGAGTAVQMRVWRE
# Chain of FRMPD4, Q14CM0 (Q14CM0 67-160): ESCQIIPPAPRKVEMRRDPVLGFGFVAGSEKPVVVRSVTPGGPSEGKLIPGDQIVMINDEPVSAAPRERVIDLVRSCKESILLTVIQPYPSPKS
# Chain of Inadl_1, Q8NI35 (Q8NI35 113-229): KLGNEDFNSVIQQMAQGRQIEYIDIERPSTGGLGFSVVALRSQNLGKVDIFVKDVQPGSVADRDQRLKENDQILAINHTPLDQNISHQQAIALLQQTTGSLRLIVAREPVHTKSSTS
# Chain of NHERF2_2, Q15599 (Q15599 142-238): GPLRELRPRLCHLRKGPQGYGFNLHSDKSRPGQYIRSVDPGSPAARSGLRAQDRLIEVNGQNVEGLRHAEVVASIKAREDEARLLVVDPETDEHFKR
# Chain of CASK, O14936 (O14936 487-570): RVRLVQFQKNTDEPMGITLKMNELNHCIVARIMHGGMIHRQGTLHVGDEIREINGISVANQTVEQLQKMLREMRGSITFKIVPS
# Chain of FRMPD2_2, Q68DX3 (Q68DX3 944-1038): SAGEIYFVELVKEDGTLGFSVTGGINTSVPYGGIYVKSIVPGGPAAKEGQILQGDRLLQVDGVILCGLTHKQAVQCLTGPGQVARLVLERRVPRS
# Chain of DLG5_1, Q8TDM6 (Q8TDM6 617-713): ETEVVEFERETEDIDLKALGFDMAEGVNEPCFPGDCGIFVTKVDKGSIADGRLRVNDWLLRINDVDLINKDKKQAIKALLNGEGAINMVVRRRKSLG
# Chain of GRID2IP_1, A4D2P6 (A4D2P6 1-87): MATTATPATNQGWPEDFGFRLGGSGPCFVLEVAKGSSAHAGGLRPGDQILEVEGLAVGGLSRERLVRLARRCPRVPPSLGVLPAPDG
# Chain of IL16_4, Q14005 (Q14005 1229-1329): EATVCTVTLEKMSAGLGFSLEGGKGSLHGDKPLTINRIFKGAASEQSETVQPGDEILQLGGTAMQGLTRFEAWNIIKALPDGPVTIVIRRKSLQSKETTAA
# Chain of GRIP2_6, Q9C0E4 (Q9C0E4 648-740): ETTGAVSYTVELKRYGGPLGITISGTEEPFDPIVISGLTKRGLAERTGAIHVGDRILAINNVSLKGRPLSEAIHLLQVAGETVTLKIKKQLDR
pKd [1],pKd [2],pKd [3],pKd [4],pKd [5],pKd [6],pKd [7],pKd [8],pKd [9],pKd [10],pKd [11],pKd [12],pKd [13],pKd [14],pKd [15],pKd [16],pKd [17],pKd [18],pKd [19],pKd [20],Binder,also measured
4,4.76,3.68,below the threshold,below the threshold,below the threshold,below the threshold,below the threshold,3.67,4.67,below the threshold,below the threshold,3.57,4.41,below the threshold,below the threshold,below the threshold,below the threshold,below the threshold,below the threshold,"MQHQRTHTRV [ZSCAN30, Q86W11]",pKd [21]: 4.23; pKd [22]: below the threshold; pKd [23]: below the threshold; pKd [24]: 3.7; pKd [25]: 3.48; pKd [26]: below the threshold; pKd [27]: below the threshold; pKd [28]: 5.42
below the threshold,5.17,3.76,below the threshold,below the threshold,below the threshold,below the threshold,below the threshold,below the threshold,4.38,below the threshold,3.54,below the threshold,3.92,3.49,below the threshold,below the threshold,below the threshold,below the threshold,below the threshold,"ILRKSTTTTV [PRR16, Q569H4]",pKd [21]: 3.92; pKd [22]: 3.74; pKd [23]: below the threshold; pKd [24]: below the threshold; pKd [25]: below the threshold; pKd [26]: below the threshold; pKd [27]: below the threshold; pKd [28]: 5.2
4.59,4.72,3.87,below the threshold,below the threshold,below the threshold,below the threshold,4.08,below the threshold,below the threshold,4.66,below the threshold,below the threshold,below the threshold,4.94,below the threshold,below the threshold,below the threshold,below the threshold,below the threshold,"NIAESLESLV [PTPRZ1, P23471]",pKd [21]: 4.51; pKd [22]: 4.44; pKd [23]: below the threshold; pKd [24]: below the threshold; pKd [25]: below the threshold; pKd [26]: below the threshold; pKd [27]: below the threshold; pKd [28]: 4.28

# More lines, now with the values behind:
Binder,pKd [1],pKd [2],pKd [3],pKd [4],pKd [5],pKd [6],pKd [7],pKd [8],pKd [9],pKd [10],pKd [11],pKd [12],pKd [13],pKd [14],pKd [15],pKd [16],pKd [17],pKd [18],pKd [19],pKd [20],also measured
"LESTTVGTSV [KARS1, Q15046]",4.13,4.06,3.81,below the threshold,below the threshold,below the threshold,3.62,below the threshold,below the threshold,4.23,3.79,below the threshold,below the threshold,below the threshold,3.7,below the threshold,below the threshold,below the threshold,below the threshold,below the threshold,pKd [21]: below the threshold; pKd [22]: 3.73; pKd [23]: below the threshold; pKd [24]: 3.72; pKd [25]: below the threshold; pKd [26]: below the threshold; pKd [27]: below the threshold; pKd [28]: below the threshold
"VKRNSKETVV [MARCHF3, Q86UD3]",below the threshold,6.12,4.55,below the threshold,below the threshold,3.92,below the threshold,3.95,below the threshold,4.91,3.81,below the threshold,below the threshold,below the threshold,4.13,below the threshold,below the threshold,below the threshold,below the threshold,below the threshold,pKd [21]: 5.37; pKd [22]: 4.2; pKd [23]: below the threshold; pKd [24]: below the threshold; pKd [25]: below the threshold; pKd [26]: below the threshold; pKd [27]: below the threshold; pKd [28]: 5.26
